In patent US20260001937A1, “NOVEL RECOMBINANT FIBRINOGEN VARIANTS FOR FIBRIN SEALANTS FOR SURGICAL WOUND CARE” (Julius-Maximilians-Universität Würzburg, priority 2022, published 2026):

Tests used:
[1] = tested on: ExpiCHO-S cell supernatant (degradation of fibrinogen α-chain); assay: Screening of inhibitors for Fbg degradation in ExpiCHO-S cell supernatant (SDS-PAGE); format: biochemical, Chinese hamster; conditions: commercial human Fbg 3.3 mg/mL, 37 C, several days, Aprotinin 50 μg/mL, EDTA 4 mM, 1,10 Phenanthroline 1 mM, UK 370106 100 μM
Procedure: ExpiCHO-S cells were cultured to a density of 6×10^6 cells/mL. Afterwards, cells were centrifuged for 4 min at 1000 rpm at RT and the supernatant was collected. Commercially available fibrinogen (SigmaAldrich) was mixed with the supernatant to a final concentration of 3.3 mg/mL and a volume of 200 μl. The mixture incubated at 37° C. and 750 rpm and samples were taken at 0, 24 and 48 h. For the screening the different inhibitors were added to the mixture (final concentrations: PMSF: 1 mM; Aprotinin: 50 μg/mL; GM6001: 25 μM; EDTA: 4 mM; 1,10 Phenanthroline: 1 mM; UK 370106: 100 μM). As control fibrinogen was incubated in 10 mM Tris/HCl, 150 mM NaCl (pH 7.5) under the same conditions. For the visualization of fibrinogen degradation, 20 μL of the mixtures were analyzed using SDS-PAGE.
Commercially available human Fbg was incubated with the supernatant taken from the CHO cells used for the expression and incubated the protein at 37 C for several days.

[2] = molecular target: T1, human plasmin (Homo sapiens, UniProt P00747); assay: Plasmin digest in solution of Fbg and rFbg variants, high-resolution ESI-MS of γ-chain cleavage sites; format: biochemical; conditions: for plasmin cleavage at the 4 sites K88, K111, K382, K399 of the γ-chain: fibrinogen solution 1 mg/mL, plasmin 0.5 U/mL, 24 h, 37° C., high-resolution ESI-MS; for plasmin cleavage at position 382 of the γ-chain (FIG. 5): peptide fragments after plasmin and additional ProAlanase cleavage, both cleaved and non-cleaved peptides detected
T1 construct: Active plasmin is a serine protease that is derived from its zymogen plasminogen; purchased Merck
T1 sequence (P00747 97-580 limits assumed): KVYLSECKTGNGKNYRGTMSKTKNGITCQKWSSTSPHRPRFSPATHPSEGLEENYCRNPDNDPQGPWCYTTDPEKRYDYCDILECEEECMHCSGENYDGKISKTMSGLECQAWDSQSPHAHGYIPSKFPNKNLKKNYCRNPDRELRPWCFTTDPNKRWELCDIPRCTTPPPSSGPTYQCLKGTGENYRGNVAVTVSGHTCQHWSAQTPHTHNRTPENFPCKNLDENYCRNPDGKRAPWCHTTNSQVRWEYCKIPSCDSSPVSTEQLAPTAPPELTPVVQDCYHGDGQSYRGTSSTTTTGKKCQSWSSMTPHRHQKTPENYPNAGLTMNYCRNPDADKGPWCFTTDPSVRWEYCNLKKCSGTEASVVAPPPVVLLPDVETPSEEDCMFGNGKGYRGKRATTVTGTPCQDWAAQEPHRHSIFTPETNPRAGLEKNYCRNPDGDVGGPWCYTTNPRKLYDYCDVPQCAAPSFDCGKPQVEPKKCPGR
T1 sequence (P00747 581-810 limits assumed): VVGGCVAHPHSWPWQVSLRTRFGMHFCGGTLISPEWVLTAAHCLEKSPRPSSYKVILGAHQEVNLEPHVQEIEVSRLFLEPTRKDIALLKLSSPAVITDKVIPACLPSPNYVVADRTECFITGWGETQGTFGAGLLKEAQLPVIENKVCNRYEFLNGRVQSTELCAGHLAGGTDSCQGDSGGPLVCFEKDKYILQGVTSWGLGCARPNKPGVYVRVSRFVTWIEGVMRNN
Procedure: In order to analyze plasmin digestion of mutated restriction sites, 100 μL of human plasmin (Merck) (0.5 U/mL) were added to 100 μg of Fbg and rFbg (Ala and His) and incubated for 24 h at 37° C. and 130 rpm in order to ensure complete cleavage. Afterwards, samples were stored at −80° C. For the analysis of the time-dependent cleavage site determination and quantification of plasmin, fibrin gels (20 mg/mL) were incubated with different plasmin concentrations ranging from 0.005 mU/mL-0.5 U/mL. Samples were taken at different timepoints from 1 min to 24 h. PMSF (1 mM) was added to the sample and heated at 95° C. for 10 minutes to ensure plasmin inactivation. Samples were stored at −80° C.
Proteins were digested either with plasmin alone (vide supra) or with plasmin and ProAlanase (ProAla) (Promega) with slight differences in handling. For all digests, all samples (WT/HIS/ALA) were brought to a concentration of 0.2 μg/μL in 50 mM tris buffer. For “plasmin only” samples were immediately purified (see below). For ProAla (Promega), 50 μL of 8M Guanidinium Hydrochloride were added to 10 μg (50 μL) of protein stock solution and briefly heated to ensure denaturation. To enable specific ProAla digest the solution was acidified using 900 μL of 32 mM HCl. After pH was checked to be in the range of 1-1.5, ProAla was added (1:50 ProAla:Protein; […]), proteolysis was allowed to continue for 2.5 h. Afterwards, pH was set to slightly basic by addition of 0.5-1 mL of 2 M Tris buffer. In the next step, the samples were immediately purified.
Precursor Tolerance of 15 ppm, fragment mass tolerance of 20 ppm, digestion C-terminal of K (non-specific), modifications are concurrent with the PMI-Byos recommendations for sequence variant analysis workflows (two rare and common modifications allowed).
Precursor Tolerance of 15 ppm, fragment mass tolerance of 20 ppm, digestion C-terminal of A and P (non-specific), modifications are concurrent with the PMI-Byos recommendations for sequence variant analysis workflows (two rare and common modifications allowed).
The α-chain plays an important part in the gelation process of fibrin. Due to the truncated α-chain gel formation with rFbg was not possible, as the production of intact complex (compare above) was still ongoing. Therefore, plasmin digests in solution with WT as well as both Ala- and His-rFbg mutants was performed to investigate if the inserted mutations are limiting proteolytic efficiency of plasmin at the respective cleavage sites. Plasmin was added to the fibrinogen solution (1 mg/mL) to a final concentration of 0.5 U/mL and the mixture was incubated for 24 h to ensure complete cleavage of fibrinogen. […] At some positions both cleaved and non-cleaved peptides were detected, however no cleavage did contain a mutation. This might be due to residual WT-Fbg peptides either on the column (carryover) or through residual WT-Fbg at any point in the workup.

[3] = tested on: ExpiCHO-S cells; conditions: literature report (ref. 51); cited from earlier work
[4] = tested on: His-rFbgH433R435
[5] = molecular target: T2, His-rFbgH433R435
T2 chain 1: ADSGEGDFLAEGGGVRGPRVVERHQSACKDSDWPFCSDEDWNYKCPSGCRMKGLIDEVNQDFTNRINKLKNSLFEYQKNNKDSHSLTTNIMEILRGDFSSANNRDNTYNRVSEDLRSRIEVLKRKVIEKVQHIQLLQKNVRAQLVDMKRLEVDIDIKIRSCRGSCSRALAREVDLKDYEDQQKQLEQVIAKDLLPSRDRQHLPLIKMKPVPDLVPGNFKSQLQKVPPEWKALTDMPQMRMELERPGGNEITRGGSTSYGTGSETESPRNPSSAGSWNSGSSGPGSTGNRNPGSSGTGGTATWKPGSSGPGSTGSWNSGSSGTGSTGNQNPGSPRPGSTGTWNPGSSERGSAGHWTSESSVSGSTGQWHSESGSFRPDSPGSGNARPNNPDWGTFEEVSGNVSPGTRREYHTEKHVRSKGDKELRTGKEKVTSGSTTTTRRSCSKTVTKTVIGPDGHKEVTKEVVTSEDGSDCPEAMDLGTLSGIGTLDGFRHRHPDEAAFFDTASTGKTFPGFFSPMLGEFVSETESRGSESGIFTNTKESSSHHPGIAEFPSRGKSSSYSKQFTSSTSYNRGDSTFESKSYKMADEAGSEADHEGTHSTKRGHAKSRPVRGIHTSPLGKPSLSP
T2 chain 2: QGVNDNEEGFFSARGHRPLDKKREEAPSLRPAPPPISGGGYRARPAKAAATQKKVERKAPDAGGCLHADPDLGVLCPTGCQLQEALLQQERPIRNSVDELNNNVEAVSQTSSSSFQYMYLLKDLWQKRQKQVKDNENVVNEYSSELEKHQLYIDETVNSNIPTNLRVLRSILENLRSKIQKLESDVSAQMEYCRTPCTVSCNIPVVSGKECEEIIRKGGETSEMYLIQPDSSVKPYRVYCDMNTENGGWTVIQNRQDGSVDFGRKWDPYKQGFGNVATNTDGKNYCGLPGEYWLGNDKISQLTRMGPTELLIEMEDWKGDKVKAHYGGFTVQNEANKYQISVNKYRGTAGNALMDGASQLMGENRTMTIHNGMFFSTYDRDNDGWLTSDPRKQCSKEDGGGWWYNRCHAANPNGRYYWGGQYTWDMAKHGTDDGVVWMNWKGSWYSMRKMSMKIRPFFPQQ
T2 chain 3: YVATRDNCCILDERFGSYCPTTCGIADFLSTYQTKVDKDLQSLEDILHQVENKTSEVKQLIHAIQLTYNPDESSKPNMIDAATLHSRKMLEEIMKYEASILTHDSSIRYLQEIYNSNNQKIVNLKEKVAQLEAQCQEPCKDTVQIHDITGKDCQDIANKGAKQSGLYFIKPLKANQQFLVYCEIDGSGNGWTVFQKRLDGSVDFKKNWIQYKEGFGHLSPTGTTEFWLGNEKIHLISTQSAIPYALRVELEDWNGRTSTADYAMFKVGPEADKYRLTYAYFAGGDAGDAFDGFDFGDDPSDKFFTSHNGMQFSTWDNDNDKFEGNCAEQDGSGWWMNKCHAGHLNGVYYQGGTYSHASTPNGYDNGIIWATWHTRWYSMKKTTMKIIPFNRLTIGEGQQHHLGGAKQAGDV

Molecule	state of the Fbg α-chain after incubation with CHO cell supernatant plus inhibitor [1]	plasmin cleavage at the 4 sites K88, K111, K382, K399 of the γ-chain [2]	other results
c1cnc2c(c1)ccc1cccnc12 [1,10 Phenantroline, 1,10 Phenanthroline]	intact α-chain was detected	–	–
O=C(O)CN(CCN(CC(=O)O)CC(=O)O)CC(=O)O [EDTA]	intact α-chain was detected	–	–
COC[C@@H](NC(=O)[C@@H](NC(=O)[C@H](CCCc1ccc(-c2ccccc2)c(C)c1)CC(=O)O)C(C)(C)C)c1ccccc1 [UK 370106, (βR)-β-[[[(1 S)-1-[[[(1 S)-2-Methoxy-1-phenylethyl]amino]carbonyl]-2,2-dimethylpropyl]amino]carbonyl]-2-methyl-[1,1′-biphenyl]-4-hexanoic acid]	intact α-chain was detected	–	–
Ala-rFbg: recombinant fibrinogen of Aα-, Bβ- and γ-chain with γ-chain K88A, K111A, K382A, K399A	–	no cleavage was detected	plasmin cleavage at position 382 of the γ-chain (FIG. 5) [2]: partial cleavage
His-rFbg: recombinant fibrinogen of Aα-, Bβ- and γ-chain with γ-chain K88H, K111H, K382H, K399H	–	no cleavage was detected	plasmin cleavage at position 382 of the γ-chain (FIG. 5) [2]: partial cleavage
WT: commercially available human fibrinogen (SigmaAldrich), wild type, used as control [reference compound]	–	could be detected	–
aprotinin	truncated α-chain is also visible	–	effect of inhibitor addition during CHO cell expression on proteolytic degradation of the fibrinogen α-chain [3]: did inhibit proteolytic degradation
thrombin	–	–	thrombin-catalyzed fibrin polymerization, turbidity at 350 nm [4]: thrombin-induced fibrin polymerization of His-rFbgH433R435 was slightly reduced compared with control (pFbg), with a similar lag time and comparable absorption
factor XIIIa (Fibrogammin, CSL Behring) (protein) GVNLQEFLNVTSVHLFKERWDTNKVDHHTDKYENNKLIVRRGQSFYVQIDFSRPYDPRRDLFRVEYVIGRYPQENKGTYIPVPIVSELQSGKWGAKIVMREDRSVRLSIQSSPKCIVGKFRMYVAVWTPYGVLRTSRNPETDTYILFNPWCEDDAVYLDNEKEREEYVLNDIGVIFYGEVNDIKTRSWSYGQFEDGILDTCLYVMDRAQMDLSGRGNPIKVSRVGSAMVNAKDDEGVLVGSWDNIYAYGVPPSAWTGSVDILLEYRSSENPVRYGQCWVFAGVFNTFLRCLGIPARIVTNYFSAHDNDANLQMDIFLEEDGNVNSKLTKDSVWNYHCWNEAWMTRPDLPVGFGGWQAVDSTPQENSDGMYRCGPASVQAIKHGHVCFQFDAPFVFAEVNSDLIYITAKKDGTHVVENVDATHIGKLIVTKQIGGDGMMDITDTYKFQEGQEEERLALETALMYGAKKPLNTEGVMKSRSNVDMDFEVENAVLGKDFKLSITFRNNSHNRYTITAYLSANITFYTGVPKAEFKKETFDVTLEPLSFKKEAVLIQAGEYMGQLLEQASLHFFVTARINETRDVLAKQKSTVLTIPEIIIKVRGTQVVGSDMTVTVEFTNPLKETLRNVWVHLDGPGVTRPMKKMFREIRPNSTVQWEEVCRPWVSGHRKLIASMSSDSLRHVYGELDVQIQRRPSM	–	–	FXIIIa-catalyzed cross-linking of gamma-chains, reducing SDS-PAGE [5]: the cross-linked γ-γ-dimer bands of rFbgH433R435 were visible after 5 min, indicating rapid lateral linkage
